Source: patent publication US9618524B2, “Method, composition, isolation and identification of a plaque particle and related biomarker” (Plaxgen Inc., priority 2012, dated 2017)

Legend:
Assay in all cases: Mass spectroscopy proteomics, semi-quantitative binding affinity of serum proteins (plaqueproteome, Table 2)
Details in all cases: higher number = stronger affinity
[1] = molecular target: T1, alpha-synuclein plaque particles (Homo sapiens, UniProt P37840)
T1 construct: 140 amino acids polypeptide
In short: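 AD-subject plasma or serum (800 μL of 50%) mixed with 30 μg preformed alpha-synuclein aggregates for 1 h at 37 °C; Thioflavin S-positive particles isolated by flow sorting. After reduction, acrylamide alkylation and overnight tryptic digestion, serum proteins identified by MS/MS with Sequest and Scaffold.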

Tau plaque particles = test system: Tau plaque particles; parameters: species or system human
In short: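 Serum or plasma proteins captured on Thioflavin S-labelled Tau plaque particles (Tau-74, Tau-275 oligomers preformed in PBS at 37° C for 2 h; 1 h co-incubation at 37° C) were isolated by FACS sorting, then tryptically digested and identified by MS/MS (Sequest, human UniProt, strict trypsin).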

[2] = molecular target: T2, Abeta-42 plaque particles (Homo sapiens, UniProt P05067)
T2 construct: Abeta 1-42
In short: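 AD patient serum or plasma (50% in PBS) was incubated with Abeta-42 aggregates (30 μg) for 1 h at 37 °C, then stained with Thioflavin S for 30 min. Labeled particles were FACS-sorted, trypsin/Lys-C digested overnight and analyzed by MS/MS. Sequest searched human UniProt; Scaffold/Protein Prophet validated the identifications.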

[3] = test system: Low density cholesterol (Chl small) plaque particles; parameters: species or system human
In short: (§1)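 Serum or plasma from atherosclerotic subjects, diluted to 50% in PBS, was incubated with cholesterol aggregates (30 μg per 1 mL reaction) at 37° C for 1 hr. Small and large cholesterol plaque particles were sorted by flow cytometry gating, trypsin-digested and analysed by MS/MS against a human UniProt database.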

[4] = test system: High Density cholesterol (Chl Large) plaque particles; parameters: species or system human
In short: as §1

Row | Molecule | Semi-quantitative analysis of proteins binding to different plaque particles: Synuclein [1] | Semi-quantitative analysis of proteins binding to different plaque particles: Tau (Tau plaque particles) | Semi-quantitative analysis of proteins binding to different plaque particles: Abeta-42 [2] | Semi-quantitative analysis of proteins binding to different plaque particles: Chl small [3] | Semi-quantitative analysis of proteins binding to different plaque particles: Chl Large [4]
1 | Alpha-1-antichymotrypsin (protein) HPNSPLDEENLTQENQDRGTHVDLGLASANVDFAFSLYKQLVLKAPDKNVIFSPLSISTALAFLSLGAHNTTLTEILKGLKFNLTETSEAEIHQSFQHLLRTLNQSSDELQLSMGNAMFVKEQLSLLDRFTEDAKRLYGSEAFATDFQDSAAAKKLINDYVKNGTRGKITDLIKDLDSQTMMVLVNYIFFKAKWEMPFDPQDTHQSRFYLSKKKWVMVPMMSLHHLTIPYFRDEELSCTVVELKYTGNASALFILPDQDKMEEVEAMLLPETLKRWRDSLEFREIGELYLPKFSISRDYNLNDILLQLGIEEAFTSKADLSGITGARNLAVSQVVHKAVLDVFEEGTEASAATAVKITLLSALVETRTIVRFNRPFLMIIVPTDTQNIFFMSKVTNPKQA | 20 | 16 | 11 | 11 | 14
2 | Isoform 2 of Inter-alpha-trypsin inhibitor heavy chain H4 (protein) EKNGIDIYSLTVDSRVSSRFAHTVVTSRVVNRANTVQEATFQMELPKKAFITNFSMIIDGMTYPGIIKEKAEAQAQYSAAVAKGKSAGLVKATGRNMEQFQVSVSVAPNAKITFELVYEELLKRRLGVYELLLKVRPQQLVKHLQMDIHIFEPQGISFLETESTFMTNQLVDALTTWQNKTKAHIRFKPTLSQQQKSPEQQETVLDGNLIIRYDVDRAISGGSIQIENGYFVHYFAPEGLTTMPKNVVFVIDKSGSMSGRKIQQTREALIKILDDLSPRDQFNLIVFSTEATQWRPSLVPASAENVNKARSFAAGIQALGGTNINDAMLMAVQLLDSSNQEERLPEGSVSLIILLTDGDPTVGETNPRSIQNNVREAVSGRYSLFCLGFGFDVSYAFLEKLALDNGGLARRIHEDSDSALQLQDFYQEVANPLLTAVTFEYPSNAVEEVTQNNFRLLFKGSEMVVAGKLQDRGPDVLTATVSGKLPTQNITFQTESSVAEQEAEFQSPKYIFHNFMERLWAYLTIQQLLEQTVSASDADQQALRNQALNLSLAYSFVTPLTSMVVTKPDDQEQSQVAEKPMEGESRNRNVHSAGAAGSRMNFRPGVLSSRQLGLPGPPDVPDHAAYHPFRRLAILPASAPPATSNPDPAVSRVMNMKIEETTMTTQTPACPSCSRSRAPAVPAPIQAPSAILPLPGQSVERLCVDPRHRQGPVNLLSDPEQGVEVTGQYEREKAGFSWIEVTFKNPLVWVHASPEHVVVTRNRRSSAYKWKETLFSVMPGLKMTMDKTGLLLLSDPDKVTIGLLFWDGRGEGLRLLLRDTDRFSSHVGGTLGQFYQEVLWGSPAASDDGRRTLRVQGNDHSATRERRLDYQEGPPGVEISCWSVEL | 12 | 15 | 2 | 13 | 20
3 | Apolipoprotein A-IV (protein) EVSADQVATVMWDYFSQLSNNAKEAVEHLQKSELTQQLNALFQDKLGEVNTYAGDLQKKLVPFATELHERLAKDSEKLKEEIGKELEELRARLLPHANEVSQKIGDNLRELQQRLEPYADQLRTQVSTQAEQLRRQLTPYAQRMERVLRENADSLQASLRPHADELKAKIDQNVEELKGRLTPYADEFKVKIDQTVEELRRSLAPYAQDTQEKLNHQLEGLTFQMKKNAEELKARISASAEELRQRLAPLAEDVRGNLRGNTEGLQKSLAELGGHLDQQVEEFRRRVEPYGENFNKALVQQMEQLRQKLGPHAGDVEGHLSFLEKDLRDKVNSFFSTFKEKESQDKTLSLPELEQQQEQQQEQQQEQVQMLAPLES | 7 | 10 | 5 | 9 | 8
4 | Cluster of Kininogen-1 (protein, UniProt P01042 19-644, looked up) Kininogen-1: QESQSEEIDCNDKDLFKAVDAALKKYNSQNQSNNQFVLYRITEATKTVGSDTFYSFKYEIKEGDCPVQSGKTWQDCEYKDAAKAATGECTATVGKRSSTKFSVATQTCQITPAEGPVVTAQYDCLGCVHPISTQSPDLEPILRHGIQYFNNNTQHSSLFMLNEVKRAQRQVVAGLNFRITYSIVQTNCSKENFLFLTPDCKSLWNGDTGECTDNAYIDIQLRIASFSQNCDIYPGKDFVQPPTKICVGCPRDIPTNSPELEETLTHTITKLNAENNATFYFKIDNVKKARVQVVAGKKYFIDFVARETTCSKESNEELTESCETKKLGQSLDCNAEVYVVPWEKKIYPTVNCQPLGMISLMKRPPGFSPFRSSRIGEIKEETTVSPPHTSMAPAQDEERDSGKEQGHTRRHDWGHEKQRKHNLGHGHKHERDQGHGHQRGHGLGHGHEQQHGLGHGHKFKLDDDLEHQGGHVLDHGHKHKHGHGHGKHKNKGKKNGKHNGWKTEHLASSSEDSTTPSAQTQEKTEGPTPIPSLAKPGVTVTFSDFQDSDLIATMMPPISPAPIQSDDDWIPDIQIDPNGLSFNPISDFPDTTSPKCPGRPWKSVSEINPTTQMKESYYFDLTDGLS | 6 | 1 | 0 | 8 | 4
5 | Kininogen-1 (protein) QESQSEEIDCNDKDLFKAVDAALKKYNSQNQSNNQFVLYRITEATKTVGSDTFYSFKYEIKEGDCPVQSGKTWQDCEYKDAAKAATGECTATVGKRSSTKFSVATQTCQITPAEGPVVTAQYDCLGCVHPISTQSPDLEPILRHGIQYFNNNTQHSSLFMLNEVKRAQRQVVAGLNFRITYSIVQTNCSKENFLFLTPDCKSLWNGDTGECTDNAYIDIQLRIASFSQNCDIYPGKDFVQPPTKICVGCPRDIPTNSPELEETLTHTITKLNAENNATFYFKIDNVKKARVQVVAGKKYFIDFVARETTCSKESNEELTESCETKKLGQSLDCNAEVYVVPWEKKIYPTVNCQPLGMISLMKRPPGFSPFRSSRIGEIKEETTVSPPHTSMAPAQDEERDSGKEQGHTRRHDWGHEKQRKHNLGHGHKHERDQGHGHQRGHGLGHGHEQQHGLGHGHKFKLDDDLEHQGGHVLDHGHKHKHGHGHGKHKNKGKKNGKHNGWKTEHLASSSEDSTTPSAQTQEKTEGPTPIPSLAKPGVTVTFSDFQDSDLIATMMPPISPAPIQSDDDWIPDIQIDPNGLSFNPISDFPDTTSPKCPGRPWKSVSEINPTTQMKESYYFDLTDGLS | 4 | 1 | 0 | 7 | 3
6 | Isoform LMW of Kininogen-1 (protein) QESQSEEIDCNDKDLFKAVDAALKKYNSQNQSNNQFVLYRITEATKTVGSDTFYSFKYEIKEGDCPVQSGKTWQDCEYKDAAKAATGECTATVGKRSSTKFSVATQTCQITPAEGPVVTAQYDCLGCVHPISTQSPDLEPILRHGIQYFNNNTQHSSLFMLNEVKRAQRQVVAGLNFRITYSIVQTNCSKENFLFLTPDCKSLWNGDTGECTDNAYIDIQLRIASFSQNCDIYPGKDFVQPPTKICVGCPRDIPTNSPELEETLTHTITKLNAENNATFYFKIDNVKKARVQVVAGKKYFIDFVARETTCSKESNEELTESCETKKLGQSLDCNAEVYVVPWEKKIYPTVNCQPLGMISLMKRPPGFSPFRSSRIGEIKEETTSHLRSCEYKGRPPKAGAEPASEREVS | 6 | 1 | 0 | 8 | 4
7 | Alpha-2-HS-glycoprotein (protein) chain 1: APHGPGLIYRQPNCDDPETEEAALVAIDYINQNLPWGYKHTLNQIDEVKVWPQQPSGELFEIEIDTLETTCHVLDPTPVARCSVRQLKEHAVEGDCDFQLLKLDGKFSVVYAKCDSSPDSAEDVRKVCQDCPLLAPLNDTRVVHAAKAALAAFNAQNNGSNFQLEEISRAQLVPLPPSTYVEFTVSGTDCVAKEATEAAKCNLLAEKQYGFCKATLSEKLGGAEVAVTCMVFQTQPVSSQPQPEGANEAVPTPVVDPDAPPSPPLGAPGLPPAGSPPDSHVL chain 2: TVVQPSVGAAAGPVVPPCPGRIRHFKV | 10 | 10 | 2 | 11 | 9
